Tests used:
[1] = target: IGF-I receptor (IGF-IR) on tumor cells (HT29, NCI H322M) or on 3T3 cells transfected with IGF-IR (human) (UniProt P08069); assay: cell-based or functional assay
[2] = target: T1, IGF-I receptor (IGF-IR) on tumor cells (HT29, NCI H322M) or on 3T3 cells transfected with IGF-IR (human, UniProt P08069 31-736; P08069 741-1367, Natural receptor on cells: glycosylated, disulfide-linked alpha2-beta2 heterotetramer. One alpha and one beta chain are given.); assay: displacement of I^125-labeled IGF-I from human tumor cells expressing IGF-IR (HT29, NCI H322M), scintillation counting
T1 construct: also called IGF-1R

[3] = target: T2, IGF-IR extracellular domain (human, UniProt P08069 31-935); assay: SPR (BIACORE 3000); antibody captured by anti-human Fcγ antibody, IGF-IR extracellular domain in solution
T2 construct: extracellular domain; also called IGF-1R; insulin-like growth factor I receptor

Molecule | Akt/PKB phosphorylation without IGF-I ligand (Western blot) [1] | IC50 [2] | Kd [3] | koff [3] | kon [3]
αIR3 (antibody) | > 5 nM | – | – | – | –
<IGF-1R>HUMAB Clone 18 (antibody 18) (antibody, V domains shown) VH: QVELVESGGGVVQPGRSQRLSCAASGFTFSSYGMHWVRQAPGKGLEWVAIIWFDGSSTYYADSVRGRFTISRDNSKNTLYLQMNSLRAEDTAVYFCARELGRRYFDLWGRGTLVSVSS VL: EIVLTQSPATLSLSPGERATLSCRASQSVSSYLAWYQQKPGQAPRLLIYDASKRATGIPARFSGSGSGTDFTLTISSLEPEDFAVYYCQQRSKWPPWTFGQGTKVESK | – | 0.3 nM | 0.000695 nM | 1.03e-07 s⁻¹ | 149000 M⁻¹ s⁻¹
<IGF-1R>HUMAB Clone 22 (antibody 22) (antibody, V domains shown) VH: VQLVESGGGVVQPGRSLRLSCAASGFTFSSYGMHWVRQAPGKGLEWMAIIWFDGSSKYYGDSVKGRFTISRDNSKNTLYLQMNSLRADDTAVYYCARELGRRYFDLWGRGTLVTVSS VL: EIVLTQSPATLSLSPGERATLSCRASQSVSSYLAWYQQKPGQAPRLLIYDASNRATGIPARFSGSGSGTDFTLTISSLEPEDFAVYYCQQRSKWPPWTFGQGTKVEIK | – | – | 0.656 nM | 9.64e-05 s⁻¹ | 147000 M⁻¹ s⁻¹

— US20080014203A1 (published 2008)
